Test results taken from the supplement of paper PMC7125110.
± gives the standard error. Variants at the floor of the assay were thinned out.

B1: glmS ribozyme (parent)
chain: AUAAAAGCGCCAGAACUACAGAAAUGUAGUUGACGAGGAGGAGGUUUAUCGAAUUUUCGGCGGAUGCCUCCAAA

Experiments:
Conditions in all cases: with glucosamine-6-phosphate
glucosamine-6-phosphate [1] = variants of: B1; assay: self-cleavage kobs at 160 uM GlcN6P; higher = faster cleavage; RNA array
Procedure, shortened: (§1)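 A hybridised Cy3 probe tracked barcoded ribozyme variants, transcribed in situ by E. coli RNA polymerase on sequenced MiSeq chips, at 37 °C. The variants received 40 μM to 10 mM glucosamine-6-phosphate in HEPES/KCl/Mg(OAc)2 buffer. kobs came from decay fits and kcat and KM from weighted Michaelis–Menten fits.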

glucosamine-6-phosphate [2] = variants of: B1; assay: self-cleavage kobs at 640 uM GlcN6P; higher = faster cleavage; RNA array
Procedure, shortened: as §1

glucosamine-6-phosphate [3] = variants of: B1; assay: self-cleavage kobs at 2500 uM GlcN6P; higher = faster cleavage; RNA array
Procedure, shortened: as §1

glucosamine-6-phosphate [4] = variants of: B1; assay: self-cleavage kobs at 10000 uM GlcN6P; higher = faster cleavage; RNA array
Procedure, shortened: as §1

glucosamine-6-phosphate [5] = variants of: B1; assay: self-cleavage kobs at 40 uM GlcN6P; higher = faster cleavage; RNA array
Procedure, shortened: as §1

Variant	self-cleavage kobs at 160 uM GlcN6P (glucosamine-6-phosphate [1]) [s⁻¹]	self-cleavage kobs at 640 uM GlcN6P (glucosamine-6-phosphate [2]) [s⁻¹]	self-cleavage kobs at 2500 uM GlcN6P (glucosamine-6-phosphate [3]) [s⁻¹]	self-cleavage kobs at 10000 uM GlcN6P (glucosamine-6-phosphate [4]) [s⁻¹]	self-cleavage kobs at 40 uM GlcN6P (glucosamine-6-phosphate [5]) [s⁻¹]
U56C U57G C58A	0.00183 ± 0.0009				
C10A U31G A42U	< 1e-05	< 1e-05	< 1e-05		
G40A A42C A48G	< 1e-05	< 1e-05	< 1e-05	< 1e-05	
G41U U45A				0.000309 ± 5.5e-05	8.05e-05 ± 2.1e-05
U49C A53C	< 1e-05	< 1e-05	< 1e-05		
A36G A64G U69G					< 1e-05
A14C C16G G38A A48G U49A	< 1e-05				
G35C U54A		< 1e-05	< 1e-05	< 1e-05	< 1e-05
C8G U47A A48C C70G	< 1e-05	< 1e-05		< 1e-05	< 1e-05
A6G C11U G43C	< 1e-05	< 1e-05			
C16U U49C	< 1e-05	< 1e-05	< 1e-05		< 1e-05
G43C U55A	< 1e-05	< 1e-05			
G13C C34A G35U	< 1e-05	< 1e-05	< 1e-05		
U30C G35A A39C G40C C68A	< 1e-05	< 1e-05			
G9A U65G C71G	< 1e-05	< 1e-05	< 1e-05		
G29A G43C	< 1e-05	< 1e-05		< 1e-05	< 1e-05
C8A G38U	< 1e-05		< 1e-05		
A36U U54C	< 1e-05	< 1e-05			< 1e-05
A36G G51U		< 1e-05		< 1e-05	< 1e-05
U46A C61G	< 1e-05	< 1e-05	< 1e-05		
C11U G62C	< 1e-05	< 1e-05	< 1e-05		< 1e-05
A36C A39G C68U	< 1e-05	< 1e-05			
A6C A36U G37C G60U					< 1e-05
C10G U65C	< 1e-05	< 1e-05	< 1e-05	< 1e-05	

Variant	self-cleavage kobs at 160 uM GlcN6P (glucosamine-6-phosphate [1]) [s⁻¹]	self-cleavage kobs at 640 uM GlcN6P (glucosamine-6-phosphate [2]) [s⁻¹]	self-cleavage kobs at 2500 uM GlcN6P (glucosamine-6-phosphate [3]) [s⁻¹]	self-cleavage kobs at 10000 uM GlcN6P (glucosamine-6-phosphate [4]) [s⁻¹]	self-cleavage kobs at 40 uM GlcN6P (glucosamine-6-phosphate [5]) [s⁻¹]
G13A U45C C50U C71G	< 1e-05	< 1e-05	< 1e-05		
G37A G38A	< 1e-05	< 1e-05	< 1e-05	< 1e-05	
A14C G40U G59U C61U	< 1e-05				
C10A C61A C67G					4.33e-05 ± 1.9e-05
G35U G37C G40U U56A U65A					< 1e-05
G7C G32U A36U G40U A42U A52G	< 1e-05	< 1e-05	< 1e-05		
C11U A12C G43C	< 1e-05		< 1e-05		
A6U A12U G43A U47G					< 1e-05
G7U C8G A12U U49G	< 1e-05	< 1e-05	< 1e-05	< 1e-05	< 1e-05
C10A G32C G41A					< 1e-05
A6G A48C		< 1e-05		< 1e-05	< 1e-05
A15U C50G	8.86e-05 ± 1.4e-05	0.000494 ± 0.00023	7.94e-05 ± 1.4e-05		3.42e-05 ± 8.1e-06
C11G U31A	< 1e-05	< 1e-05			< 1e-05
G40A A48U C61G				< 1e-05	< 1e-05
A15C G32C G38U	< 1e-05				
A48C C50A A52G	< 1e-05		< 1e-05		
G29C C34G U55C	< 1e-05				
A33C G37C		< 1e-05	< 1e-05		< 1e-05
G41U G62U	< 1e-05	< 1e-05	< 1e-05	< 1e-05	< 1e-05
A33C U56C	< 1e-05	< 1e-05	< 1e-05	< 1e-05	
U46A G51C A52G	< 1e-05	< 1e-05	< 1e-05		
A53U G59U C61U G66U	< 1e-05		< 1e-05		
G7U A14G	< 1e-05	< 1e-05		< 1e-05	< 1e-05
G60U C67G	< 1e-05	< 1e-05	< 1e-05	< 1e-05	< 1e-05
